For two substances, Kd and stoichiometry N (SRPKΔ per Cp183 dimer) results are on record in publication PMC3219723.

One test addresses ASF/SF2 (Homo sapiens) (UniProt Q07955). As to conditions: cited from earlier work.
The target of test [1] is Cp183 dimer (HBV core protein, free dimer) (Hepatitis B virus) (UniProt P03147). As to the kind of experiment: SEC; 5.3 µM Cp183 dimer alone or mixed with 11.2 µM SRPKΔ in disassembly buffer, dialysed overnight against reassembly buffer (0.25 M NaCl, 10 mM DTT, 20 mM Tris-HCl pH 7.4); Superose 6; fractions by SDS-PAGE.

pKd: −log10 of the molar value.

UniProt P03147, sequence (P03147 whole entry): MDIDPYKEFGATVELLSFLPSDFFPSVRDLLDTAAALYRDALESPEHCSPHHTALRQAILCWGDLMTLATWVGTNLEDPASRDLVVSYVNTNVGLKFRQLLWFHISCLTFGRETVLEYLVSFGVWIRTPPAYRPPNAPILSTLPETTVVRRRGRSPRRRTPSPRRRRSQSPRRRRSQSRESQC
UniProt Q07955, sequence (Q07955 2-248): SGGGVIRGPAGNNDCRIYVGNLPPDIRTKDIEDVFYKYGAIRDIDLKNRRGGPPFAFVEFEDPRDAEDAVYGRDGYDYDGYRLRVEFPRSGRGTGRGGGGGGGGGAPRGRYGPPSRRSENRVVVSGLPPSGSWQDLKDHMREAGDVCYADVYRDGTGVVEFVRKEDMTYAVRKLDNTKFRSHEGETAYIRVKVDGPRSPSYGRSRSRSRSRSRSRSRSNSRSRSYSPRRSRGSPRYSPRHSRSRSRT

Broadly, the pKd is the negative decadic logarithm of the Kd, by convention in mol/L. As for SRPK1 (from UniProt Q96SB4), in the test with ASF/SF2 (Homo sapiens), the pKd was 7.30.
With “SRPK1ΔN1S1 (truncated Serine Arginine protein kinase 1) (from UniProt Q96SB4 1-655) (enzyme)”, the stoichiometry N (SRPKΔ per Cp183 dimer) in test [1] is > 1.
